Measured values: patent US20130158103A1

Target: TGFβ1 (PeproTech Inc, Rocky Hill, N.J.)
Assay: cell-based or functional assay

SMA RNA level (real-time PCR), decorin-transfected vs un-transfected HSF with TGFβ1 1 ng/ml: > 6 fold
SMA protein level (western blot), decorin-transfected vs un-transfected HSF with TGFβ1: 83%
SMA-stained cells (immunocytochemistry), decorin-transfected vs un-transfected HSF with TGFβ1: 79%
collagen type I RNA level (real-time PCR), decorin-transfected vs naked-vector transfected HSF with TGFβ1 1 ng/ml: 1 fold
collagen type III RNA level (real-time PCR), decorin-transfected vs naked-vector transfected HSF with TGFβ1 1 ng/ml: 0.9 fold
collagen type IV RNA level (real-time PCR), decorin-transfected vs naked-vector transfected HSF with TGFβ1 1 ng/ml: 3.2 fold
fibronectin RNA level (real-time PCR), decorin-transfected vs naked-vector transfected HSF with TGFβ1 1 ng/ml: 3.1 fold
Substance: human decorin (Accession #NM-001920), expressed in human corneal fibroblasts (HSF) from pcDNA3.1-decorin (from UniProt P07585 31-359)
